Source: the supplement of paper PMC12042874
± gives the uncertainty stated by the source.

Assay: amyloid nucleation score (Sup35N fusion, yeast selection) (log enrichment); library NNK3; higher = more nucleation; inactive = no reads after selection
Summary of the method: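 The nucleation score equals the log enrichment of output over input reads from DiMSum, centred on the mode score of non-aggregating sequences. It was computed only for sequences with 100 or more input reads. The reads came from Illumina sequencing of plasmid inserts from psi-negative yeast expressing Sup35N fused to peptides of 20 random codons, induced with 100 μM copper sulfate for 24 hours and grown 7 days at 30°C without adenine and uracil.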

| Substance | amyloid nucleation score |
| --- | --- |
| FMKSRINIRIALWCF | inactive |
| IVWASTWTCCTN | 2.73 ± 0.049 |
| FIVLCALLWFCLNWSDLLKF | inactive |
| FPDTALLGCNCLFCLEGDGL | inactive |
| LCSVVTSRAMSGSF | inactive |
| CFGISLTESMSTSQNVVLDH | inactive |
| FLGTHEGTDRLLWCVIEEKG | inactive |
| TPKTLDWAYGYNIVSGKAIN | inactive |
| PHGNVLVLYDKRVLSCVEWN | 0.428 ± 0.46 |
| TSLEN | inactive |
| CCIIYVVRRGE | 1.28 ± 0.096 |
| VNVIDLFGFQPSNRLTGNVR | inactive |
| NDKYWTIHMTSLGQRLIFAE | 1.25 ± 0.15 |
| FGRSVDFMVIHFCTTY | inactive |
| IKSGFW | inactive |
| ESNVVPLNSHR | inactive |
| NVVSWVNHACGWRDRSATMS | inactive |
| VEHDNKGISQAAVMFG | inactive |
| PRISQEDVFARTARVDLGLQ | inactive |
| SCGTMTEIGVGRVLRFFVIL | inactive |
| DSVYGMHGKTTFT | inactive |
| HGPAMTSRSRNTSVLVLVSP | inactive |
| NDWREANLF | inactive |

| Substance | amyloid nucleation score |
| --- | --- |
| STNMFVCDGRTPTNYWLGIR | 1.42 ± 0.14 |
| VGSGTQSWVRNEMRSMLDLW | inactive |
| CNCVRWWRSSSTTNG | inactive |
| QMRVQMSCCFLGTCFSGRHW | 3.29 ± 0.056 |
| LNLYRLPLTPSLSASRMIAY | inactive |
| AGYNYASKSNTLESQTACCS | inactive |
| YPNDLTRVFDRDNNLLGTHG | 0.551 ± 0.32 |
| FNSKTLKLTFFMVVPEYCWW | inactive |
| KVCSVVLLGLFSYMYRGYVM | inactive |
| SVGCPVVRTQFILSPGQTSN | inactive |
| VARIIYQRIW | inactive |
| IPYDSSLLNSSNVCYLI | inactive |
| CMAMSFPWWWYTGIITYSL | inactive |
| TVRFEGIGSHVRHTFCALDF | inactive |
| QNFPSTSHFNIYC | 1.72 ± 0.094 |
| NNLTKM | inactive |
| KERVNRSLTYTVFSS | inactive |
| CGLDSCLVICQYK | 0.584 ± 0.28 |
| KFVFSFGSLYSVLTLERVEG | 0.388 ± 0.2 |
| ALARELIFLLCMNVRLMGFK | inactive |
| FGNLLVLSYDEDCNAATWVR | inactive |
| IMCYLSITRWKDM | inactive |
| EKITFGECWKACSAF | inactive |

| Substance | amyloid nucleation score |
| --- | --- |
| NMMFILGFFNNKY | 2.38 ± 0.076 |
| VYCLFVTCLKGINQWMHDKS | inactive |
| GTAIIEGTM | inactive |
| GNIAYSVLMWSDCKTCQCDV | 1.82 ± 0.058 |
| YTFLSVAFLD | inactive |
| IKIMFLTAVYVMVGLQIIAT | inactive |
| QDYTWVFEVSWAPKGGNLNV | inactive |
| FSFQQSWVSY | inactive |
| TGDGTWS | inactive |
| LSYCKRHIRRRLFVG | -0.208 ± 0.6 |
| LDVPWRTFLNGFHSFLT | inactive |
| VYIVSDTRMATASFG | -0.773 ± 1.3 |
| ERALIDSHPGTWLRRMTVNR | inactive |
| WCTAAM | inactive |
| QNFRIYTVSLLNNRYDELIS | inactive |
| MIPCLHEFLYLNSWDNKVGL | inactive |
| SDNELMIAFESG | inactive |
| VCSFCCFGTVRSL | 2.1 ± 0.058 |
| ASIGIRFVDCLYSVLRRWMF | inactive |
| IYVARSGARGRGSWSLCKIC | 0.629 ± 0.28 |
| YAALWITYCLSSTTSRDDLD | inactive |
| RYMHGYCILET | inactive |
| DIFVFILMLRTTDSWVLLS | inactive |

| Substance | amyloid nucleation score |
| --- | --- |
| KGHCQAVGLKEEKPR | inactive |
| EDNRTTVVFTGEC | inactive |
| TPLDDLMCQLCSGYPLVILP | inactive |
| DRLHSCYCCTIVHRFYRNYD | inactive |
| PYFQFGSSCE | inactive |
| KSNFGLVSSPMVFSYCSYTN | 0.364 ± 0.35 |
| WYSRTDCNKTAENSCSTKFI | 0.611 ± 0.17 |
| HGHSQFL | inactive |
| QVCFQSWDASRSRYRHRLKR | 0.625 ± 0.21 |
| VDIGYQMQGFLGICSDY | inactive |
| HVVIARTNRGDYNCFSSDGG | inactive |
| TLYCRYFG | 1.01 ± 0.23 |
| RFTCKYLPTLLTGVIRGPSP | inactive |
| VDHGRD | inactive |
| NHLVGLNMSISMCDSLNSVF | inactive |
| TAEKSGVGLFGGTSVFLFES | inactive |
| DFMRVGVTRRALRVLSKSSD | inactive |
| FHSAL | inactive |
| MRLNGFLRRKGRVSNMWHTG | inactive |
| CYWPVCYSFGKLQACFYFEI | inactive |
| PSVFVRVLEKNRDLMMRTAS | inactive |
| GFTAGRFPCGSFWLGSCCWY | 0.231 ± 0.36 |
| RHNISFT | inactive |

| Substance | amyloid nucleation score |
| --- | --- |
| NSSNVFVLIVCMYWKFSYSC | inactive |
| ATPFGWDHN | inactive |
| DRQLDDGGTRNKFIKCLVAR | inactive |
| RLNYWMTDDGCGRSCDTRVE | inactive |
| SSYLLRLLIFTSSIRRMFGS | inactive |
| RSMIWRKCF | inactive |
| MIRRKRNAYMR | inactive |
| LVCGPI | inactive |
| FNERIRTNLFDSWTMWGMCF | inactive |
| SFCMCGGLLVRSYRSFRFVR | inactive |
| ACSRKISSIVATSRLVSTSG | inactive |
| VKVFFPIVRCDTYHIYKQWG | 2.51 ± 0.053 |
| LEPDNYTLGGTKSTTTFAHR | inactive |
| HKYSEGSLNTFRRLRRSRFS | inactive |
| TCLWFLFIKRSSRDSEIWS | 0.209 ± 0.53 |
| DLCGNPVPVQSSGLGYDGLV | inactive |
| SREVSLLKWMVIILCLW | inactive |
| GFTLHHLTACVIGTCVFFSP | 1.93 ± 0.1 |
| YTFRCIYRADYNTP | inactive |
| LVNGVHLREWVTPRVECGSF | inactive |
| LWSIRYFKIS | inactive |
| PRDNILTPQHV | inactive |
| RFWSMRALR | inactive |

| Substance | amyloid nucleation score |
| --- | --- |
| LGRKIRFFGYSGWGCMIREY | inactive |
| RGFFMVWLMNCLMRFRISDF | inactive |
| AFYDNWKGNG | 0.141 ± 0.35 |
| GVHWETDEGNVVRL | inactive |
| TLSLVQQSR | inactive |
| KYCGVTNLA | inactive |
| SIGNCIFYTMAVFQWSTYTL | inactive |
| FRNWIWVLYEV | inactive |
| SGDPGGHQSRR | inactive |
| NLSTFQIYDR | inactive |
| DGWFNQCASESSFKVHHGS | inactive |
| HFLFRVRRGTWK | 0.396 ± 0.34 |
| GYCNESTVWYDS | inactive |
| IISCYTNKMIVVTWCYPLRR | 0.116 ± 0.19 |
| LLNRDI | inactive |
| ATCLLIGFGPWMSPAG | inactive |
| INNLFTRVSSIRFCVRS | inactive |
| GVTLTTLDSLSDFGWLIE | inactive |
| GCERMFIMVYSL | inactive |
| ASYLNYSFVKIETAVSSNPC | 0.609 ± 0.11 |
| RYAHRSKRNTSWHVYMFKVV | inactive |
| ATQLCCIVCRGLGPGMGEES | inactive |
| LICIQCWFYDSYHTQQLWGL | 2.16 ± 0.056 |

| Substance | amyloid nucleation score |
| --- | --- |
| HLVKEGDNTMVGGYPFQWMT | inactive |
| NIYYLCSFLSWLTMG | 2.36 ± 0.049 |
| MELNLNKSSAYYKSVHFSVT | -0.053 ± 0.3 |
| GSSKCRRLCGRVRQYSYWNR | inactive |
| FANYGEKIWCFGAMLGKRLS | inactive |
| TCGVVSPRGMSNMLCLGGWS | inactive |
| SLMKGCTLLDSFRLRKP | inactive |
| RNCNETLNIVETGNSISANV | inactive |
| FSYAFWVKIIIVFRRFITRK | inactive |
| SRGEKNSNFTWTNDFDFFRV | inactive |
| GMDKRNNYMSIIDWRVPHSI | inactive |
| SSWSSRATLMLSSEVKSDMV | inactive |
| FGKGVCRLD | inactive |
| LYIIKSR | -0.51 ± 1.7 |
| LQQCFYMVNFFMLSSLAVLL | inactive |
| YGYVIPSSQLPSWTLQRY | inactive |
| TAFTYYASVSFVSRL | 1.38 ± 0.093 |
| NAQDPIGSGYVQ | inactive |
| QFSVCCCRHLPLYMTKAVIA | inactive |
| YNLAGVFVIGHGNACATAFR | 0.831 ± 0.3 |
| SPMRLLGSSFGQ | inactive |
| HDRTVSLQYRVNTRVRLASW | inactive |
